B1: PhaC2 (PHA polymerase 2), granule-bound (Ectopseudomonas oleovorans) (protein)
chain: MKDKPAKGTPTLPATSMNVQNAILGLRGRDLISTLRNVSRQSLRHPLHTAHHLLALGGQLGRVILGDTPLQPNPRDPRFSDPTWSQNPFYRRGLQAYLAWQKQTRLWIEESHLDDDDRARAHFLFNLINDALAPSNSLLNPLAVKELFNSGGQSLVRGVAHLLDDLRHNDGLPRQVDERAFEVGGNLAATAGAVVFRNELLELIQYKPMSEKQHARPLLVVPPQINKFYIFDLSSTNSFVQYMLKNGLQVFMVSWRNPDPRHREWGLSSYVQALEEALNACRSISGNRDPNLMGACAGGLTMAALQGHLQAKHQLRRVRSATYLVSLLDSKFESPASLFADEQTIEAAKRRSYQRGVLDGAEVARIFAWMRPNDLIWNYWVNNYLLGKTPPAFDILYWNADSTRLPAALHGDLLDFFKLNPLTHPAGLEVCGTPIDLQKVELDSFTVAGSNDHITPWDAVYRSALLLGGDRRFVLANSGHIQSIINPPGNPKAYYLANPKLSSDPRAWLHDAKRSEGSWWPLWLEWITARSGPLKAPRSELGNATYPPLGPAPGTYVLTR
notes: overexpressed from pGEc404 in PHA-negative P. putida GPp104; assayed on isolated PHA granules (other granule proteins present)
B2: PhaC1 (PHA polymerase 1), granule-bound (Ectopseudomonas oleovorans) (protein)
chain: MSNKNNDELQRQASENTLGLNPVIGIRRKDLLSSARTVLRQAVRQPLHSAKHVAHFGLELKNVLLGKSSLAPESDDRRFNDPAWSNNPLYRRYLQTYLAWRKELQDWIGNSDLSPQDISRGQFVINLMTEAMAPTNTLSNPAAVKRFFETGGKSLLDGLSNLAKDLVNNGGMPSQVNMDAFEVGKNLGTSEGAVVYRNDVLELIQYKPITEQVHARPLLVVPPQINKFYVFDLSPEKSLARYCLRSQQQTFIISWRNPTKAQREWGLSTYIDALKEAVDAVLAITGSKDLNMLGACSGGITCTALVGHYAALGENKVNALTLLVSVLDTTMDNQVALFVDEQTLEAAKRHSYQAGVLEGSEMAKVFAWMRPNDLIWNYWVNNYLLGNEPPVFDILFWNNDTTRLPAAFHGDLIEMFKSNPLTRPDALEVCGTPIDLKQVKCDIYSLAGTNDHITPWQSCYRSAHLFGGKIEFVLSNSGHIQSILNPPGNPKARFMTGADRPGDPVAWQENATKHADSWWLHWQSWLGERAGELEKAPTRLGNRAYAAGEASPGTYVHER
notes: overexpressed from pGEc405 in PHA-negative P. putida GPp104; assayed on isolated PHA granules (other granule proteins present)

Substrate: CCCCC[C@@H](O)CC(=O)SCCNC(=O)CCNC(=O)[C@H](O)C(C)(C)COP(=O)(O)OP(=O)(O)OC[C@H]1O[C@@H](n2cnc3c(N)ncnc32)[C@H](O)[C@@H]1OP(=O)(O)O
Experiment: cells, lysate or membranes
Type: biochemical, Ectopseudomonas oleovorans
Conditions: granule-bound enzyme (isolated PHA granules), 100 mM Tris-HCl pH 8, 1 mg/ml BSA, 0.5 mM MgCl2, substrate 0.0375-0.25 mM

Protein	Km
B1	37 ± 10 µM
B2	125 ± 35 µM

Reference: PMC2788523, “Overexpression and characterization of medium-chain-length polyhydroxyalkanoate granule bound polymerases from Pseudomonas putida GPo1” (Microbial Cell Factories, 2009)
